The text below walks through data of PMC10998878, “Inhibition of acyl-CoA binding protein (ACBP) by means of a GABAARγ2-derived peptide” (Cell Death & Disease, 2024).

One series relates to Huh-7 cells. In words: WST-8 conversion (metabolic activation) by Huh-7 cells. It counts as cell-based, human. Particulars: for effect on RecACBP/DBI-stimulated WST-8 conversion: then RecACBP/DBI 4 h, n = 4. The method, then: Media and cell culture supplements were purchased from Gibco-Invitrogen (Carlsbad, CA, USA). Plasticware was purchased from Corning B.V. Life Sciences (Schiphol-Rijk, The Netherlands). Unless reported otherwise, the cell line used in this study was cultured at standard conditions (37 °C, 5% CO2, Dulbecco’s modified Eagle’s medium containing 10% fetal bovine serum, 10 mM HEPES buffer, 100 mg/L sodium pyruvate, 100 U/mL penicillin G sodium, and 100 µg/mL streptomycin sulfate). 2-deoxy-D-glucose (# D8375) and rotenone (# R8875) were purchased from Sigma (Burlington, MA, USA). Human hepatocellular carcinoma (Huh-7) cell line was used for in vitro experiments. Cells were plated in 6- or 96-well plates and grown for 24 h before treatments.
WST-8 conversion assays were conducted utilizing the Cell Counting Kit-8 (Sigma-Aldrich, #96992). Cells were seeded in a 96-well plate at a density of 3000 cells per well and incubated overnight for adherence. Then, the culture medium was removed, and fresh medium containing the specified treatments was added to the wells. Immediately following the addition of treatments, 10 μL of CCK-8 reagent was introduced to each well. Subsequently, the cells were incubated for 4.5 h at 37 °C to facilitate the conversion of WST-8 in response to cellular activity. Following the incubation period, the absorbance at 450 nm was quantified using a VICTOR® Nivo™ microplate reader. This measurement served as an indicator of WST-8 conversion, reflecting cellular metabolic activity.
Fig. 6 Inhibition of the metabolic effects of ACBP/DBI on hepatocytes by the GABAARγ2-derived eicosapeptide. A WST-8 conversion by murine primary hepatocytes treated with increasing concentrations of recombinant ACBP/DBI protein (RecACBP/DBI) for 4 h. Hepatocytes were isolated from tamoxifen-induced Acbp/Dbi f/f or Acbp/Dbi KO full-body genetic background mice (white- or blue-colored graphs respectively). […] For statistical analysis p values are calculated by one-way ANOVA. B WST-8 conversion by control (shUNR) and ACBP/DBI-knocked down (shACBP/DBI) human Huh-7 cells treated with increasing concentrations of RecACBP/DBI for 4 h. shUNR and shACBP/DBI cells are represented by white- or blue-colored graphs respectively. […] C WST-8 conversion by Huh-7 cells treated with RecACBP/DBI or negative control (4 h). Cells were pre-treated with 2-deoxy-D-glucose (2-Deoxy-D-glu; 300 µM) or vehicle (2 h). […] D WST-8 conversion by Huh-7 cells treated with RecACBP/DBI or negative control (4 h). Cells were pre-treated with rotenone (0.5 µM) or vehicle (2 h). […] E WST-8 conversion by Huh-7 cells treated with RecACBP/DBI or negative control (4 h). Prior to administration, RecACBP/DBI was overnight pre-incubated with monoclonal antibody (α-ACBP/DBI) or isotype IgG1. […] F WST-8 conversion by Huh-7 cells treated with RecACBP/DBI or negative control (4 h). Prior to administration, RecACBP/DBI was overnight pre-incubated with GABAARγ2 (WT or F77I-mutated) eicosapeptides.
(Tetrazolium assays rely on reduction of a dye to a coloured formazan, in cell work by metabolically active cells.)

In series [1] the test system is native ACBP/DBI protein (mouse liver extracts). Put plainly: Pull down / immunoprecipitation of native ACBP/DBI from liver extracts. It counts as binding. Particulars: mouse liver protein extract (500 μg), peptide-coated beads, overnight 4 °C, immunoblot for ACBP. The method, then:
The physical interaction between the native ACBP and GABAARγ2 peptides was examined by standard immunoprecipitation (IP) and immunoblotting protocols. In detail, liver protein extracts (500 μg) were immunoprecipitated on protein A/G-Sepharose beads (Merck Millipore, Burlington, MA, USA, #GE17-0618-01) coated with (1× 2× 4×) either GABAARγ2 wild type (WT) or mutated (F77I) eicosapeptide (Biosynth ltd) or its negative control (PBS). Each IP reaction was incubated overnight (4 °C) in a rotation chamber followed by three consecutive rounds of PBS washing the next day. Each washing round included a PBS resuspension of the pellet and a re-centrifugation (12,000 × g, 4 °C). Finally, beads were resuspended in 20 μL of NUPAGE 4× buffer (Life Technologies, CA, USA, #NP0008), heated at 100 °C (10 min), followed by standard immunoblotting for the ACBP protein (Abcam #ab231910).
Fig. 5 Biophysical and biochemical detection of a direct interaction between ACBP/DBI and the GABAARγ2-derived eicosapeptide. A Schematic representation of the GABAAR and the GABAARγ2-derived eicosapeptides. B Surface plasmon resonance kinetics of ACBP-GABAARγ2-derived eicosapeptide (WT and F77I) interactions. Representative ACBP immunoblot (C) from control- or GABAARγ2-immunoprecipitated samples. Anti-GABAARγ2 immunoprecipitation (IP) assay was employed in order to validate the GABAARγ2 WT peptide interaction with native ACBP (in murine hepatic protein extracts), and quantification (D). […] For statistical analysis p value (indicating statistical comparisons with the control condition) was calculated by Mann–Whitney U-test. E Anti-GABAARγ2 IP assay to address the physical interaction between GABAARγ2 peptides and murine hepatic ACBP protein. Interaction was validated using an increasing gradient of biotinylated WT/F77I peptides that were bound on the surface of streptavidin beads as part of the IP assay. […]

The test system of series [2] is primary mouse hepatocytes. In words: WST-8 conversion (metabolic activation) by primary hepatocytes. As to conditions: Acbp/Dbi f/f and KO, increasing concentrations of RecACBP/DBI, 4 h (text: within 4.5 h), n = 3. It is filed as cell-based. The method, then: After filtration through a 100 µm cell strainer and successive centrifugations at 30 × g, 4 °C for 5 min, cells were resuspended in the following attachment culture medium: DMEM/F12, 20 mM HEPES (pH = 7.4), 5 mM glucose, 10% FBS (Sigma), 5 mg/mL BSA, 100 U/mL penicillin, and 100 μg/mL streptomycin. The cells were then purified by density gradient centrifugation using an isotonic solution of Percoll (GE Healthcare Bio-Sciences AB, Uppsala, Sweden). Cell viability was assessed using Trypan blue exclusion. Cells were plated in a 96-well plate overnight to facilitate cell attachment before proceeding with experiments.
WST-8 conversion assays were conducted utilizing the Cell Counting Kit-8 (Sigma-Aldrich, #96992). Cells were seeded in a 96-well plate at a density of 3000 cells per well and incubated overnight for adherence. Then, the culture medium was removed, and fresh medium containing the specified treatments was added to the wells. Immediately following the addition of treatments, 10 μL of CCK-8 reagent was introduced to each well. […] Following the incubation period, the absorbance at 450 nm was quantified using a VICTOR® Nivo™ microplate reader. […]
Fig. 6 Inhibition of the metabolic effects of ACBP/DBI on hepatocytes by the GABAARγ2-derived eicosapeptide. […] For statistical analysis p values are calculated by one-way ANOVA. […]

A further series has as its system C57BL/6 mice. In words: Food intake after intravenous injection. It counts as in vivo, mouse. Particulars: i.v., 0.5 mg/kg, after 24 h starvation, cumulative food intake 30 min, n = 4 to 9. The protocol:
Prior to experimentation, mice were subjected to 24 h starvation followed by individual housing and acclimatization in individual cages (2 h). Subsequently, mice were intravenously (i.v.) injected with recombinant ACBP/DBI protein (RecACBP/DBI) (total volume of 200 μL, 0.5 mg/kg body weight), either alone or in combination with GABAARγ2 peptides (5× molar excess). Cumulative food intake was then analyzed as previously described. Prior to i.v. injections, the RecACBP mixes were pre-incubated (16 h, 4 °C) with GABAARγ2 peptides.

Series [3] addresses T1, recombinant murine ACBP/DBI (acyl-CoA binding protein / diazepam binding inhibitor) (mouse, UniProt P31786 1-87, biotin (site not stated; for the SPR chip)).
T1 construct: Biotinylated for immobilisation on the SA chip; in the food intake experiment murine RecACBP/DBI was injected and no biotin is mentioned; also called RecACBP/DBI; recombinant ACBP/DBI; source: recombinant, from the Institute of Psychiatry and Neuroscience of Paris, France
T1 sequence (looked up): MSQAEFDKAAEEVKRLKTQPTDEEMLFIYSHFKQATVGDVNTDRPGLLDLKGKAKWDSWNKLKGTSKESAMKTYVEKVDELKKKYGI
Put plainly: SPR; Biacore 2000; biotinylated ACBP/DBI immobilised on SA chip (1600 RU); peptides injected at 10 µM and 100 µM in HBS-EP, 30 µL/min, 25 °C; association 4 min, dissociation 5 min; control surface streptavidin alone. As to conditions: both partners purified.

Where no end group is shown, it is not given here.

On to `O=CC[C@@H](O)[C@H](O)[C@H](O)CO` [2-deoxy-D-glucose, reference compound], for which, in the series with Huh-7 cells (pre-treated with 2-deoxy-D-glucose 300 µM for 2 h), the “effect on RecACBP/DBI-stimulated WST-8 conversion” value is “abolished”.
`C=C(C)[C@H]1Cc2c(ccc3c2O[C@@H]2COc4cc(OC)c(OC)cc4[C@@H]2C3=O)O1` [rotenone, reference compound]: the “effect on RecACBP/DBI-stimulated WST-8 conversion” value in the series with Huh-7 cells (pre-treated with rotenone 0.5 µM for 2 h) is on record as “abolished”.
Turning to “Biotinylated GABAARγ2-EP-WT: Biotinylated GABAARγ2-EP-WT immobilized on streptavidin-precoated beads (INMEYTIDIFFAQTWYDRRL; also: biotin, site not given here)”, the “pull down of endogenous/native ACBP/DBI, in words” value in series [1] is “absorbed endogenous ACBP/DBI protein from mouse liver extracts”.

B1: recombinant ACBP/DBI protein: recombinant acyl-CoA binding protein encoded by diazepam binding inhibitor (protein)
chain: MSQAEFDKAAEEVKRLKTQPTDEEMLFIYSHFKQATVGDVNTDRPGLLDLKGKAKWDSWNKLKGTSKESAMKTYVEKVDELKKKYGI
modifications: biotin (site not stated; for the SPR chip)
Consider B1, for which the “WST-8 conversion, metabolic activation by the substance” value is “increase in the capacity to reduce” with Huh-7 cells (shUNR and shACBP/DBI, increasing concentrations of RecACBP/DBI, 4 h (text: within 4.5 h), n = 8–9); “increase in the capacity to reduce” in series [2]. Also, in the series on C57BL/6 mice, the “food intake / appetite, effect of recombinant ACBP/DBI” value is on record as “induced an increase in appetite”.

B2: GABAARγ2-derived eicosapeptide, wild type (GABAARγ2-EP-WT) (peptide)
peptide: INMEYTIDIFFAQTWYDRRL
notes: GABAA receptor gamma-2 subunit (GABRG2), 20-mer with F77 in position 10; 100% identical in zebrafish, chicken, mouse and human; Stocked in DMSO at 1 mg/mL; used without a stated biotin in SPR and in the functional tests; also called GABAARγ2 WT peptide; WT EP; source: synthetic peptide (Biosynth ltd)
B2: the binding result in series [3] is on record as “binds”.
